In patent US20200397917, “ENGINEERED DNA BINDING PROTEINS” (Encoded Therapeutics, Inc., published 2020):

Key:
[1] = molecular target: EGR1-based eTF, 9 ZF (SCN1A) (synthetic); assay: cell_activity; endogenous SCN1A, HEK293
Procedure: (§1) HEK293 cells were cultured per standard methods, and transfected (FuGene HD, Promega) with 3 ug of each tested activator, or an EGFP control. 48h following transfection, cells were collected and RNA was isolated (Qiagen RNeasy Mini kit), and DNase treated. RNA (3 ug) was reverse transcribed using OligoDT primers (Superscript IV, Invitrogen). cDNA samples were analyzed by qPCR using Phusion Polymerase (New England Biolabs) and SYBR Green I: (30s at 98° C., 40×[10 sec at 98° C., 15 sec at 68° C., 15 sec at 72° C.]). Primers against human SCN1A (5′-[…]-3′ (SEQ ID NO: 190); 5′-[…]-3′ (SEQ ID NO: 191)) were used to quantify levels of reporter-driven EGFP transcript, and relative levels of EGFP expression were determined by the delta-delta Ct method with GAPDH as a reference gene (5′-[…]-3′ (SEQ ID NO: 192); 5′-[…]-3′ (SEQ ID NO: 193)). Data are presented as fold changes relative to the control condition. SEQ ID NOs: 6, 7, and 9 are eTFs derived from human EGR1 protein and are engineered to bind to a target site near or at endogenous SCN1A gene, wherein the target site is SEQ ID NOs: 35-37.

[2] = molecular target: EGR1-based eTF, duplicated 6 ZF (TRE) (synthetic); assay: cell_activity; EGFP reporter
Procedure: (§2) HEK293 cells were cultured per standard methods, and co-transfected (FuGene HD, Promega) with 1.5 ug of a reporter plasmid consisting of EGFP under the control of a tetracycline-responsive element (TRE) tight promoter, and 1.5 ug of each tested activator, or empty vector control (pUC57). 48h following transfection, cells were imaged using an epifluorescent microscope for GFP expression. The cells were collected and RNA was isolated (Qiagen RNeasy Mini kit), and DNase treated. RNA (3 ug) was reverse transcribed using OligoDT primers (Superscript IV, Invitrogen). cDNA samples were analyzed by qPCR using Phusion Polymerase (New England Biolabs) and SYBR Green I: (30s at 98° C., 40×[10 sec at 98° C., 15 sec at 65° C., 15 sec at 72° C.]). Primers against EGFP (5′-[…]-3′ (SEQ ID NO: 369); 5′-[…]-3′ (SEQ ID NO: 370)) were used to quantify levels of reporter-driven EGFP transcript, and relative levels of EGFP expression were determined by the delta-delta Ct method with GAPDH as a reference gene (5′-[…]-3′ (SEQ ID NO: 192); 5′-[…]-3′ (SEQ ID NO: 193)).
(§3) Data are presented as fold changes relative to the control condition.

[3] = molecular target: EGR1-based eTF, synthetic 6-ZF DBD (synthetic); assay: cell_activity; EGFP reporter
Procedure: as §2, §3

ZF DBD-VP64 = ZF DBD-VP64 (synthetic); assay: cell_activity; EGFP reporter; about 40-fold in FIG. 33B; conditions: tags: NLS
Procedure: as §2, §3

ZF DBD-CITED2 = ZF DBD-CITED2 (synthetic); assay: cell_activity; versus reporter alone; conditions: tags: NLS; CITED2
Procedure: as §2, §3

ZF DBD-CITED4 = ZF DBD-CITED4 (synthetic); assay: cell_activity; versus reporter alone; conditions: tags: NLS; CITED4
Procedure: as §2, §3

[4] = molecular target: EGR3-based eTF, 6 ZF (TRE) (synthetic); assay: cell_activity; versus control SEQ 187
Procedure: as §2, §3

[5] = molecular target: EGR1-based eTF, 6 ZF (SCN1A) (synthetic); assay: cell_activity; endogenous SCN1A, HEK293
Procedure: as §1

EGR1-based eTF, 3 ZF = EGR1-based eTF, 3 ZF (synthetic, UniProt P18146 SEQ:1-543); assay: cell_activity; EGFP reporter
Procedure: as §2, §3

Chain of EGR1-based eTF, 9 ZF (SCN1A) (synthetic) (chain, as listed by the source): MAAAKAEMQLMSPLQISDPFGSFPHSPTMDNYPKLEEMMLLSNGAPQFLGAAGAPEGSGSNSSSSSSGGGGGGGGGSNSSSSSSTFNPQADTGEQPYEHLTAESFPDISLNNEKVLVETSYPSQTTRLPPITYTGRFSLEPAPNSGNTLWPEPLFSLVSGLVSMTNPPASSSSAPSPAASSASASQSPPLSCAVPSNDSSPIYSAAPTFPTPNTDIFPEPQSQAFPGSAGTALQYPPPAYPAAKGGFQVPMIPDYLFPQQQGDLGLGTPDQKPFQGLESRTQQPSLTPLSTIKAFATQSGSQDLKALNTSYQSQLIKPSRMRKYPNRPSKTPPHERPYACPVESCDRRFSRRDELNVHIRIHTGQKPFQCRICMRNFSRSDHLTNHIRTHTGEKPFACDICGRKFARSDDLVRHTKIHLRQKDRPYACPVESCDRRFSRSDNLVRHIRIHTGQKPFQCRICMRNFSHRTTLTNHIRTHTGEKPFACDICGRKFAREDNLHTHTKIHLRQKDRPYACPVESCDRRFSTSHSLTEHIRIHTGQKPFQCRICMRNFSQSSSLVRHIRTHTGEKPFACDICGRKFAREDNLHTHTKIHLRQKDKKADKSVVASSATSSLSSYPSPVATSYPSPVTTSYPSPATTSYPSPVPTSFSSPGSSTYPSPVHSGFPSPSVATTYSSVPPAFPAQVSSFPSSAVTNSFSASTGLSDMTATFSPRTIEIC
Chain of ZF DBD-CITED2 (synthetic) (chain, as listed by the source): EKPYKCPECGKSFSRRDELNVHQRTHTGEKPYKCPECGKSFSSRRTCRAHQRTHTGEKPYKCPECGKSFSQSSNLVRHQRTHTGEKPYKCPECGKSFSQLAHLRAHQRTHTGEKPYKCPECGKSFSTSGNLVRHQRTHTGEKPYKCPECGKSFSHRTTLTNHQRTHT
Chain of EGR1-based eTF, duplicated 6 ZF (TRE) (synthetic) (chain, as listed by the source): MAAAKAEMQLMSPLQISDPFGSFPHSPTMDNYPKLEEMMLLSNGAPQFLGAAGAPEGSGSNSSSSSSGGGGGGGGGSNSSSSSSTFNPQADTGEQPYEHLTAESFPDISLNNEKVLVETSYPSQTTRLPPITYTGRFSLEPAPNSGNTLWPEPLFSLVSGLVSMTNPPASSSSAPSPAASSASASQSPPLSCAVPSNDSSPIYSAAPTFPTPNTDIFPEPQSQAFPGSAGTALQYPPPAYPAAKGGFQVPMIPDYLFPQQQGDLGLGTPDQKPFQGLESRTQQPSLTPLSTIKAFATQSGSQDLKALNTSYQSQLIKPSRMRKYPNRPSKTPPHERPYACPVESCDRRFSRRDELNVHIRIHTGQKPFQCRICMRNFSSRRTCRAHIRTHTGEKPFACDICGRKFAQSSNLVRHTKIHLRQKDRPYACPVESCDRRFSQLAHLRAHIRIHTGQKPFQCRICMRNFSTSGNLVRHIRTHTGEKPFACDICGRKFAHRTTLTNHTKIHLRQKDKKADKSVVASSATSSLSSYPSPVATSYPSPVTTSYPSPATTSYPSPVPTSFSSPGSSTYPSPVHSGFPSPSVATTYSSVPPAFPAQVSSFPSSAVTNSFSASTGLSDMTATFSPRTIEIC
Chain of EGR1-based eTF, synthetic 6-ZF DBD (synthetic) (chain, as listed by the source): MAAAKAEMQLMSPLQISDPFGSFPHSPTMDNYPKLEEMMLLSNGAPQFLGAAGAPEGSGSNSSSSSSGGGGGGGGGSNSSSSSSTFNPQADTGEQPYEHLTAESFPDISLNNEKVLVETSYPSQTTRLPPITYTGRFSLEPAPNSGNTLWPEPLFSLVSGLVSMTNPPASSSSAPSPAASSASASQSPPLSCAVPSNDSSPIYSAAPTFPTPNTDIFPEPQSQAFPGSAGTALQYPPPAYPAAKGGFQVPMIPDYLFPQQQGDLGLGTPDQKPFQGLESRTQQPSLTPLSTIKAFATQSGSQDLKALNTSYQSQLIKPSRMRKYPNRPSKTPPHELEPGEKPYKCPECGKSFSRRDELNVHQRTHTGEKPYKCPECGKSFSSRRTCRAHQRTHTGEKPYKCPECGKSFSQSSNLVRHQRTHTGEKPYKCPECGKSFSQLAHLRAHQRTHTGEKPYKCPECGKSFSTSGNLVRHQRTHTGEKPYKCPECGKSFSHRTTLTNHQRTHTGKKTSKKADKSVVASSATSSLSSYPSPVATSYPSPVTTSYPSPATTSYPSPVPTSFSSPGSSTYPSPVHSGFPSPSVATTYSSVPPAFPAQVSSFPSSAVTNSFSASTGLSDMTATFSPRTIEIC
Chain of EGR3-based eTF, 6 ZF (TRE) (synthetic) (chain, as listed by the source): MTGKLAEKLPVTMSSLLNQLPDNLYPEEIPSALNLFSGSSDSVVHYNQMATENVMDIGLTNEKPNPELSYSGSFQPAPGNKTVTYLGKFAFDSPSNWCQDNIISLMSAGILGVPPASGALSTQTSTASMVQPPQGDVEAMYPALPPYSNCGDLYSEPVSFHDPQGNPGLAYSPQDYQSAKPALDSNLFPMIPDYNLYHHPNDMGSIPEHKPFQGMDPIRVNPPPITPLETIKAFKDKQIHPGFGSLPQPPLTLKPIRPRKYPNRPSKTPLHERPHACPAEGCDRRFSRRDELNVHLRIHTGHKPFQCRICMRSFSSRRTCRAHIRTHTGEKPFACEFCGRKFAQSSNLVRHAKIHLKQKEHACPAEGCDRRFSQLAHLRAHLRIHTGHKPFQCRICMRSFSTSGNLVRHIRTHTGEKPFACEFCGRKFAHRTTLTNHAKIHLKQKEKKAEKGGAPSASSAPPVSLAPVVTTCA
Chain of EGR1-based eTF, 3 ZF (P18146 other isoform, or with tags, fused parts or gaps): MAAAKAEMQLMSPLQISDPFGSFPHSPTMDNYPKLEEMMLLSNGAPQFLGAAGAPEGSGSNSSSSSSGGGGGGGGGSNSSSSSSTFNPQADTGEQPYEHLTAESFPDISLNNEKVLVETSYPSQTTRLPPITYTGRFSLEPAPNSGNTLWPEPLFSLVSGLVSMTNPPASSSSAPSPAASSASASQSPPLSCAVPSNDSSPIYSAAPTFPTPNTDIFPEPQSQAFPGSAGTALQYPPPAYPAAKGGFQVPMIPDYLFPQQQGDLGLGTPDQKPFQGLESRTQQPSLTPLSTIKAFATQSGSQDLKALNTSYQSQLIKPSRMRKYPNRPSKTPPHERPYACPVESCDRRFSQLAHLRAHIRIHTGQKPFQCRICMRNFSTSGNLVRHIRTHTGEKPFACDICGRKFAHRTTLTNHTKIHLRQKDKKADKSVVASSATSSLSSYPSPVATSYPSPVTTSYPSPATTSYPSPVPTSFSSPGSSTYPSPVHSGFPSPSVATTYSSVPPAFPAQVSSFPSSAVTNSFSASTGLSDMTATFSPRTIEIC
Chain of EGR1-based eTF, 6 ZF (SCN1A) (synthetic) (chain, as listed by the source): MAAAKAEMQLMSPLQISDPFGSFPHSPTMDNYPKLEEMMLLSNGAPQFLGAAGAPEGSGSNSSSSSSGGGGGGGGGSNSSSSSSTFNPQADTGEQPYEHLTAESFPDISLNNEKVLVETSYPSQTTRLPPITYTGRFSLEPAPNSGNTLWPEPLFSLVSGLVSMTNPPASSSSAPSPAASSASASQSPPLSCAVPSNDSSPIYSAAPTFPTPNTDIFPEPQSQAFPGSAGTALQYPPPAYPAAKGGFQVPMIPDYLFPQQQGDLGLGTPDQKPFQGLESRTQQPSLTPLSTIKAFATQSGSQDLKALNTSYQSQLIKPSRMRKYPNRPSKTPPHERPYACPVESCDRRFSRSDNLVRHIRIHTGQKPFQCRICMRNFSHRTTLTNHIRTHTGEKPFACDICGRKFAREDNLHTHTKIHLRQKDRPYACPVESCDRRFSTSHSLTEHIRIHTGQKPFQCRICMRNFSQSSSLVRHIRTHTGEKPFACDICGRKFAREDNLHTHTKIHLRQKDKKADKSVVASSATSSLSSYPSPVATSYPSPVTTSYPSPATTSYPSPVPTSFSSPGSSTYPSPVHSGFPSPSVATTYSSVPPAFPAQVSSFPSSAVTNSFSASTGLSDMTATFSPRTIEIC

B1: SCN1A site 37 (dsDNA)
DNA 1: TAGGTACCATAGAGTGAGGCGAGGATG
DNA 2: CATCCTCGCCTCACTCTATGGTACCTA
Binder B1 has an activity [1] of about 20 fold SCN1A.

B2: TRE reporter site (dsDNA)
DNA 1: AGTGATAGAGAACGTATG
DNA 2: CATACGTTCTCTATCACT
Work on B2 yielded an activity [2] of 15 fold EGFP, an activity [3] of 10 fold EGFP and an activity (ZF DBD-VP64) of 70 fold EGFP. It also gave an activity (ZF DBD-CITED2) of about 15 fold EGFP, an activity (ZF DBD-CITED4) of about 10 fold EGFP and an activity [4] of at least 5 fold EGFP.

B3: SCN1A site 36 (dsDNA)
DNA 1: TAGGTACCATAGAGTGAG
DNA 2: CTCACTCTATGGTACCTA
B3 gave an activity [5] of about 7 fold SCN1A.

B4: TRE reporter 9-nt site (dsDNA)
DNA 1: AGTGATAGA
DNA 2: TCTATCACT
B4 was tested, and the activity (EGR1-based eTF, 3 ZF) was 3 fold EGFP.
